Experimental data published in the Immune Epitope Database (IEDB).

Columns and labels:
[1] = target: HLA-A*02:01; assay: IEDB peptide-MHC binding, purified MHC/competitive/fluorescence; filed as Kd, often an IC50 or EC50 that approximates it; ≥ and ≤ were set here for values at or beyond the usual limits of such assays
[2] = target: HLA-A*02:03; assay: as above
[3] = target: HLA-A*02:11; assay: as above
[4] = target: HLA-A*02:19; assay: as above
[5] = target: HLA-A*69:01; assay: as above
[6] = target: HLA-A*02:16; assay: as above
[7] = target: HLA-A*03:01; assay: as above
[8] = target: HLA-A*23:01; assay: as above
[9] = target: HLA-A*24:03; assay: as above
[10] = target: HLA-A*26:01; assay: as above
[11] = target: HLA-A*29:02; assay: as above
[12] = target: HLA-B*15:01; assay: as above
[13] = target: HLA-B*18:01; assay: as above
[14] = target: HLA-B*27:03; assay: as above
[15] = target: HLA-B*39:01; assay: as above
[16] = target: HLA-B*46:01; assay: as above
[17] = target: HLA-B*51:01; assay: as above
[18] = target: HLA-B*57:01; assay: as above
[19] = target: HLA-A*02:12; assay: as above
[20] = target: HLA-A*31:01; assay: as above; conditions: source organism: Entamoeba histolytica HM-1:IMSS
[21] = target: HLA-A*68:02; assay: as above
[22] = target: HLA-A*01:01; assay: IEDB peptide-MHC binding, purified MHC/direct/fluorescence; filed as Kd, often an IC50 or EC50 that approximates it; ≥ and ≤ were set here for values at or beyond the usual limits of such assays; conditions: source organism: Mycobacterium tuberculosis
[23] = target: HLA-A*02:01; assay: as above; conditions: source organism: Mycobacterium tuberculosis
[24] = target: HLA-A*03:01; assay: as above; conditions: source organism: Mycobacterium tuberculosis
[25] = target: HLA-A*31:01; assay: as above; conditions: source organism: Mycobacterium tuberculosis
[26] = target: HLA-B*15:01; assay: as above; conditions: source organism: Mycobacterium tuberculosis
[27] = target: HLA-B*15:09; assay: as above; conditions: source organism: Mycobacterium tuberculosis str. Haarlem
[28] = target: HLA-B*15:17; assay: as above; conditions: source organism: Mycobacterium tuberculosis
[29] = target: HLA-B*27:05; assay: as above; conditions: source organism: Mycobacterium tuberculosis
[30] = target: HLA-B*40:01; assay: as above; conditions: source organism: Mycobacterium tuberculosis
[31] = target: HLA-B*46:01; assay: as above; conditions: source organism: Mycobacterium tuberculosis
[32] = target: HLA-B*48:01; assay: as above; conditions: source organism: Mycobacterium tuberculosis
[33] = target: HLA-B*51:01; assay: as above; conditions: source organism: Mycobacterium tuberculosis
[34] = target: HLA-B*57:01; assay: as above; conditions: source organism: Mycobacterium tuberculosis
[35] = target: HLA-B*58:01; assay: as above; conditions: source organism: Mycobacterium tuberculosis
[36] = target: HLA-A*11:01; assay: IEDB peptide-MHC binding, purified MHC/competitive/fluorescence; filed as Kd, often an IC50 or EC50 that approximates it; ≥ and ≤ were set here for values at or beyond the usual limits of such assays; conditions: source organism: Mycobacterium tuberculosis variant bovis BCG str. Pasteur 1173P2
[37] = target: HLA-A*30:01; assay: as above; conditions: source organism: Mycobacterium tuberculosis variant bovis BCG str. Pasteur 1173P2
[38] = target: HLA-B*08:01; assay: as above
[39] = target: HLA-B*15:17; assay: as above; conditions: source organism: Burkholderia pseudomallei K96243
[40] = target: HLA-B*07:02; assay: as above; conditions: source organism: Yersinia pestis Nepal516
[41] = source organism: Human immunodeficiency virus 1
[42] = source organism: Cryptosporidium parvum Iowa II
[43] = source organism: Entamoeba histolytica HM-1:IMSS
[44] = source organism: Plasmodium yoelii yoelii
[45] = source organism: Mycobacterium tuberculosis variant bovis BCG str. Pasteur 1173P2
[46] = source organism: Burkholderia pseudomallei K96243
[47] = source organism: Yersinia pestis Nepal516

Measured: Kd

GLADQLIHM
0.0008 µM: [3]; [41]
0.0837 µM: [1]; [41]
≥ 20 µM: [5]; [41]
0.155 µM: [4]; [41]
0.0024 µM: [2]; [41]

LTAPCDIYV
0.0005 µM: [6]; [42]
≥ 20 µM: [1]; [42] | [3]; [42] | [4]; [42] | [7]; [42] | [8]; [42] | [9]; [42] | [10]; [42] | [11]; [42] | [12]; [42] | [13]; [42] | [14]; [42] | [15]; [42] | [16]; [42] | [17]; [42] | [18]; [42]

RSLVCLAPK
46.5 nM: [20]
≥ 20 µM: [1]; [43] | [2]; [43] | [3]; [43] | [19]; [43] | [6]; [43] | [4]; [43] | [8]; [43] | [9]; [43] | [10]; [43] | [11]; [43] | [21]; [43] | [5]; [43] | [12]; [43] | [13]; [43] | [14]; [43] | [15]; [43] | [16]; [43] | [17]; [43] | [18]; [43]

KPPRGVLLY
≥ 20 µM: [1]; [44] | [2]; [44] | [19]; [44] | [4]; [44] | [7]; [44] | [8]; [44] | [9]; [44] | [10]; [44] | [21]; [44] | [5]; [44] | [12]; [44] | [13]; [44] | [14]; [44] | [15]; [44] | [16]; [44] | [17]; [44] | [18]; [44]
0.115 µM: [11]; [44]

YPARVKCAL
0.0229 µM: [15]; [45]
≥ 20 µM: [22] | [23] | [24] | [25] | [26] | [28] | [29] | [30] | [31] | [32] | [33] | [34] | [35] | [36] | [5]; [45]
97 nM: [38]; [45]
1090 nM: [27]
2540 nM: [37]

SELTVSPPD
0.845 µM: [13]; [46]
≥ 20 µM: [1]; [46] | [2]; [46] | [19]; [46] | [6]; [46] | [4]; [46] | [7]; [46] | [9]; [46] | [10]; [46] | [21]; [46] | [5]; [46] | [12]; [46] | [39] | [14]; [46] | [15]; [46] | [16]; [46] | [17]; [46] | [18]; [46]

MPLKVQVCI
816 nM: [38]; [47]
1.27 µM: [17]; [47]
304 nM: [40]
